Target: C12ORF57-FLAG (human) (UniProt Q99622)
Assay: co-IP

Chain of UniProt Q99622 (Q99622 whole entry): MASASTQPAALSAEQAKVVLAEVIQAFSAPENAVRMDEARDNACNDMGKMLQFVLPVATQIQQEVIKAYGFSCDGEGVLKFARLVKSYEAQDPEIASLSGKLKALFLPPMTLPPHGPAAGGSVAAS

Substance | change in CAMK4 co-precipitated with C12ORF57-FLAG, against wild type CAMK4 [%]
CAMK4 lacking the autoinhibitory domain (NAI) (from UniProt Q16566 1-473) (enzyme) | -65.8
CAMK4 lacking the calmodulin binding domain (NCB) (from UniProt Q16566 1-473) (enzyme) | -6.13

— PMC11838199
